Reference: PMC7881195

Experiments:
[1] = molecular target: C. elegans PGL-1 N-terminal dimerization domain (NtDD), wild-type (C. elegans); assay: SEC-MALS; C. elegans PGL-1 NtDD wild-type and mutants injected at 1 mg/ml in HNT buffer (20 mM HEPES pH 7.4, 100 mM NaCl, 0.5 mM TCEP) on a SEC 650 sizing column, 0.4 ml/min
[2] = molecular target: C. elegans PGL-3 N-terminal dimerization domain (NtDD), wild-type (C. elegans); assay: SEC-MALS; C. elegans PGL-3 NtDD wild-type and mutant, 500 µl at 1 mg/ml in HNT buffer (20 mM HEPES pH 7.5, 100 mM NaCl, 0.5 mM TCEP) on Superdex 75 10/300 GL, 0.5 ml/min, 20 °C

stoichiometry N [1] | stoichiometry N [2] | Substance
2 |  | C. elegans PGL-1 N-terminal dimerization domain (NtDD), wild-type (domain or fragment)
 | 2 | C. elegans PGL-3 N-terminal dimerization domain (NtDD), wild-type (domain or fragment)
